Data as given in patent US8852550B2, “Chelator conjugates” (GE Healthcare Limited, priority 2001, dated 2014).
Ends that are not written are not given here. Compound 1 = not defined here

Legend:
[1] = 99mTc labelling of Compound 5, radiochemical purity by ITLC and HPLC (Example 11); type: physicochemical
Description: A freeze-dried formulation containing: • 50 μg PABA (para-aminobenzoic acid), • 30 μg SnCl2, • 90 μg MDP (methylenediphosphonic acid), • 1.32 mg NaHCO3, • 98 μg Na2CO3, • 4 mg NaOAc, was sealed under nitrogen gas in a 10 ml glass vial. The vial was removed from freezer storage and left at room temperature for 15 minutes, and was then reconstituted with 100 μl of a solution containing Compound 5, ie. the peptide-chelator conjugate Ac-Asn-Gln-Glu-Gln-Val-Ser-Pro-(I-Tyr)-Thr-Leu-Leu-Lys-Gly-[Compound 1] (2 mg in 2 ml water) and Xml of ^99mTc-pertechnetate in saline, with a radioactive concentration of 0.5 GBq/ml, from an Amertec II ^99mTc generator at room temperature. The activity was measured using an ion chamber. The RCP was measured using ITLC and HPLC. The results are shown in Table 3 for different values of X: […]

[2] = 99mTc labelling of Compound 9, radiochemical purity by ITLC and HPLC (Example 13); type: physicochemical
Description: Compound 9 was prepared in an analogous manner to Examples 7 and 8, and labelled with ^99mTc in solution (Preparation 1) or via a freeze-dried kit according to Example 10 (Preparation 2).
For Preparation 1, 100 μg of Compound 9 was dissolved in 1 ml of pH 8.5 borate buffer. This was transferred to a P6 vial and sealed. 1 ml ^99mTc-pertechnetate in saline (1.0 GBq/ml, from an Amertec II generator) was added at room temperature, together with 0.1 ml SnCl2 solution (10 mg SnCl2 in 100 ml N2 purged saline). The activity was measured using an ion chamber. The RCP was measured using ITLC and HPLC.

[3] = Prep 1, X 2 ml, 1.04 GBq, 255 min post-reconstitution
[4] = Prep 2, X 2 ml, 1 GBq, 15 min post-reconstitution
[5] = Prep 3, X 5 ml, 2.47 GBq, 15 min post-reconstitution

Substance	RCP % (ITLC) ([1]; Prep 1, X 2 ml, 1.04 GBq, 15 min post-reconstitution)	RCP % (HPLC) [1, 3]	RCP % (ITLC) [1, 3]	RCP % (HPLC) [1, 4]	RCP % (ITLC) [1, 4]	RCP % (HPLC) ([1]; Prep 2, X 2 ml, 1 GBq, 60 min post-reconstitution)	RCP % (HPLC) [1, 5]	RCP % (ITLC) [1, 5]	RCP % (HPLC) ([1]; Prep 3, X 5 ml, 2.47 GBq, 150 min post-reconstitution)	RCP % (ITLC) ([1]; Prep 4, X 2 ml, 1.02 GBq, 15 min post-reconstitution)	RCP % (HPLC) ([1]; Prep 4, X 2 ml, 1.02 GBq, 140 min post-reconstitution)	RCP by ITLC ([2]; Preparation 1: in solution, pH 8.5 borate buffer, room temperature)	RCP by HPLC ([2]; Preparation 2: freeze-dried kit according to Example 10)
Ac-Asn-Gln-Glu-Gln-Val-Ser-Pro-(I-Tyr)-Thr-Leu-Leu-Lys-Gly-[Compound 1] (chain 1 Ac-NQEQVSP; chain 2 TLLKG-{Compound 1}; not fully specified (C-terminus); reading uncertain; also: chains 1 and 2 joined in one chain through I-Tyr) [Compound 5, peptide-chelator conjugate of Compound 1 with thrombus-targeting peptide]	99.4%	86.8%	99.2%	83.0%	99.3%	85.2%	86.5%	99.3%	87.6%	99.1%	86.6%		
[Compound 1]-Cys-Cys-Glu-Leu-Cys-Cys-Asn-Pro-Ala-Cys-Ala-Cys-Tyr-OH ({Compound 1}-CCELCCNPACACY-OH; reading uncertain; also: cyclic, bridges not given here, printed as [Compound 1]-Cys-Cys-Glu-Leu-Cys-Cys-Asn-Pro-Ala-Cys-Ala-Cys-Tyr-OH) [Compound 9]												96%	82%
